B1: BAD16-C (residues 204-352, B. afzelii strain PGau) (domain or fragment)
chain: SNRYESYLEGVKYNVSSAIKTIVKIYDNYTLLSTKQTQMYSTRLDNLAKAKAREEAKKFTKEELEKDLKTLLNYIQVSARTATNFVYAREIYSKRKLDAIETEIKNLVLKIKGQSDLYEAYKAIVRSILLMKDSLKIIEIVIDKNGVWY

How the values were obtained:
[1] = target: B1; assay: SPR
human C1 complex = human C1 complex (human, UniProt P02745 23-245; P02746 28-253; P02747 29-245); assay: SPR

Row | Binder | Kd [1] [nM] | Kd (human C1 complex) [nM]
1 | human C1r, full-length enzyme (enzyme) SIPIPQKLFGEVTSPLFPKPYPNNFETTTVITVPTGYRVKLVFQQFDLEPSEGCFYDYVKISADKKSLGRFCGQLGSPLGNPPGKKEFMSQGNKMLLTFHTDFSNEENGTIMFYKGFLAYYQAVDLDECASRSKSGEEDPQPQCQHLCHNYVGGYFCSCRPGYELQEDTHSCQAECSSELYTEASGYISSLEYPRSYPPDLRCNYSIRVERGLTLHLKFLEPFDIDDHQQVHCPYDQLQIYANGKNIGEFCGKQRPPDLDTSSNAVDLLFFTDESGDSRGWKLRYTTEIIKCPQPKTLDEFTIIQNLQPQYQFRDYFIATCKQGYQLIEGNQVLHSFTAVCQDDGTWHRAMPRCKIKDCGQPRNLPNGDFRYTTTMGVNTYKARIQYYCHEPYYKMQTRAGSRESEQGVYTCTAQGIWKNEQKGEKIPRCLPVCGKPVNPVEQRQRIIGGQKAKMGNFPWQVFTNIHGRGGGALLGDRWILTAAHTLYPKEHEAQSNASLDVFLGHTNVEELMKLGNHPIRRVSVHPDYRQDESYNFEGDIALLELENSVTLGPNLLPICLPDNDTFYDLGLMGYVSGFGVMEEKIAHDLRFVRLPVANPQACENWLRGKNRMDVFSQNMFCAGHPSLKQDACQGDSGGVFAVRDPNTDRWVATGIVSWGIGCSRGYGFYTKVLNYVDWIKKEMEEED | 2.2 | 
2 | B1 |  | 5.4
3 | BBK32-C (residues 206-354, B. burgdorferi strain B31) (domain or fragment) SNRYQSYLEGVKYNVDSAIQTITKIYNTYTLFSTKLTQMYSTRLDNFAKAKAKEEAAKFTKEDLEKNFKTLLNYIQVSVKTAANFVYINDTHAKRKLENIEAEIKTLIAKIKEQSNLYEAYKAIVTSILLMRDSLKEVQGIIDKNGVWY |  | 6

From article PMC6445466 (2019)
